Target: T1, Streptavidin (streptavidin column) (UniProt P22629 37-163, limits assumed)
T1 construct: Immobilised on column matrix
Experiment: affinity column (streptavidin column without kappa)

T1 sequence (P22629 37-163 limits assumed): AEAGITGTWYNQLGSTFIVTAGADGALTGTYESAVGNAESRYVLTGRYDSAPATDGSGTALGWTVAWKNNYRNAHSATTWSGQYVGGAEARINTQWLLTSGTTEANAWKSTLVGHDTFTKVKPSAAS

B1: LHL (growth factor comprising H flanked by two L molecules) (designed binder)
chain: MKKTAIAIAVALAGFATVAQAAPKDNTEEVTIKANLIFANGSTQTAEFKGTFEKATSEAYAYADTLKKDNGEYTVDVADKGYTLNIKFAGKEATNRNTDGSTDYGILQINSRWGGLTLKEEVTIKANLIFANGSTQTAEFKGTFEKATSEAYAYADTLKKDNGEYTVDVADKGYTLNIKFAG
notes: also called LIIL [sic]
- binding result: no binding

Reference: patent publication US20030148484A1 (published 2003)
